Measurements: US20090191235A1

Legend:
17b antibody = test: SPR (Biacore); 17b on-rate with CD4 over without CD4
2-domain CD4 [1] = biological target: 2-domain CD4 (UniProt P01730); test: SPR (Biacore), 2-domain CD4 immobilised, gp120 analyte
[2] = biological target: CD4 as used in isothermal titration calorimetry (UniProt P01730); test: ITC, drawn table of thermodynamic values of CD4-gp120 binding
[3] = biological target: CD4 as used in isothermal titration calorimetry (UniProt P01730); test: ITC, drawn table of thermodynamic values, column 'Kd (nM) to sCD4'
2-domain CD4 [4] = biological target: 2-domain CD4 (UniProt P01730); test: ITC, titration of HXBc2 core with sCD4(D1D2) at 37°C, value in the box beside the curve
2-domain CD4 [5] = biological target: 2-domain CD4 (UniProt P01730); test: ITC, titration of HXBc2 core with sCD4(D1D2) at 37°C, stoichiometry marked at molar ratio 1.0 (CD4/core gp120)

**Q.** “gp120 HXBc2 core, wild type (from UniProt P04578 83-492)” was tested. Which CD4 Induction (17b antibody) did it give?
**A.** The CD4 Induction was 79.9.

**Q.** And the Kd (2-domain CD4 [1])?
**A.** The Kd was 29.5 nM.

**Q.** And the -TΔS [2]?
**A.** The -TΔS was 40 kcal/mol.

**Q.** What about the ΔH [2] of the same substance?
**A.** Its ΔH is -49.7 kcal/mol.

**Q.** What about the Kd [3] of the same substance?
**A.** The Kd was 87 nM.

**Q.** What about the -TΔS (2-domain CD4 [4]) of the same substance?
**A.** Its -TΔS is 40 kcal/mol.

**Q.** And the Kd (2-domain CD4 [4])?
**A.** Its Kd is 117 nM.

**Q.** And the ΔH (2-domain CD4 [4])?
**A.** Its ΔH is -49 kcal/mol.

**Q.** And the n (2-domain CD4 [5])?
**A.** Its n is 1.
